Experimental findings from patent publication US20160251703, “ALLERGEN DETECTION” (DOTS DEVICES, INC., published 2016) are described below.

Data set [1] concerns the target T1, Lysozyme (egg white) (UniProt P00698 P00698:19-147). The experiment in a line: fluorescence turn-on; 100 uM SPN detects 5 ng/mL lysozyme; 25 C; not altered by milk or BSA (FIG. 10). The conditions noted are these: tags: Pierce (Thermo Scientific); partial duplex with annealed 10-nt quencher linker at 5' end. As to the method: (§1) Protein samples are diluted to specified concentrations in PBS. The signaling polynucleotide solutions are prepared at 200 μM in 10 mM TRIS-HCl, pH 7.5, heated to 99° C. for 3 minutes and then cooled to room temperature for 20 minutes. Volumes of 60 μL of protein solutions are added to the wells of a 96-well plate. Signaling polynucleotides are added to the wells as soon as possible after the addition of the protein samples. Fluorescence readings are taken immediately with all readings obtained at 25° C. with an excitation wavelength of 495 nm and emission monitored at the fluorescence peak of 519 nm. The signaling polynucleotides were synthesized by TriLink Biotechnologies (San Diego, Calif.), pure lysozyme was obtained from Pierce (Thermoscientific) and BSA was obtained from Sigma Aldrich.
(§2) The data plotted in FIG. 9A indicate that SPN-E* at a concentration of 100 μM detects lysozyme at a 5 ng/mL concentration and increases the detection level to 3 pg/sample. The data plotted in FIG. 9B indicate that SPN-E can be used to detect lysozyme in unprocessed egg white which was diluted 1:20 (sample size was 30 μL). SPN-E gave a minimal signal with BSA as the negative control protein.

Data set [2] concerns the target T1, Lysozyme (egg white). The experiment in a line: fluorescence turn-on; lysozyme spiked into chocolate cake. The following applies: tags: Pierce (Thermo Scientific); label: 5'-fluorescein, 3'-Dabcyl; hairpin. As to the method:
A set of binding assays were performed using lysozyme SPNs (MB4, MB5 and MB6). Experimental procedures: Food samples were homogenized as stated above—generally 2.5 ml buffer was added to 0.5 food sample. The samples were homogenized and centrifuged. 25 ul of the sample was added to a 96 flat bottom well plate. The specific SPN was resuspended to a 100 uM concentration and 25 ul of the SPN was added to the plate—final concentration 50 uM. The samples were immediately read with the GloMax Promega plate reader using the blue laser. (detection was quantified as the intensity of FITC minus the background—buffer alone and non-spiked samples).

Data set [3] deals with Ovomucoid (UniProt P01005 P01005:25-210). The experiment in a line: ovomucoid spiked in mug cake. The conditions noted are these: label: 5'-fluorescein, 3'-Dabcyl; hairpin.
Data set [4] deals with Bovine serum albumin (Bos taurus, UniProt P02769 P02769:25-607). The experiment in a line: fluorescence turn-on; minimal signal with BSA negative control. The conditions noted are these: tags: Sigma Aldrich; label: 5'-fluorescein, 3'-DABCYL; hairpin. As to the method:
as §1, §2

The target of data set [5] is T1, Lysozyme (egg white). The experiment in a line: fluorescence turn-on; detects lysozyme 0.6-1200 ng/mL; 12 uM SPN; PBS/Tris pH 7.5, 25 C. The conditions noted are these: tags: Pierce (Thermo Scientific); label: 5'-fluorescein, 3'-Dabcyl; hairpin. As to the method:
as §1
An assay was performed to obtain a dose curve (12 μM of detection of signaling polynucleotide SPN-E per sample). The results are shown in FIG. 8 and indicate that SPN-E detects lysozyme concentrations ranging from 0.6 ng/mL to 1200 ng/mL, translating to less than 50 pg of lysozyme per sample.

T1 sequence (P00698 19-147, one chain of several): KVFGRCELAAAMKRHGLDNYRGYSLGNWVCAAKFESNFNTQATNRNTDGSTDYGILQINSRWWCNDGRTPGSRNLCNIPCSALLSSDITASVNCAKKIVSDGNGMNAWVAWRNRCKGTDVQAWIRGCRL
Chain of Ovomucoid (P01005 25-210, one chain of several): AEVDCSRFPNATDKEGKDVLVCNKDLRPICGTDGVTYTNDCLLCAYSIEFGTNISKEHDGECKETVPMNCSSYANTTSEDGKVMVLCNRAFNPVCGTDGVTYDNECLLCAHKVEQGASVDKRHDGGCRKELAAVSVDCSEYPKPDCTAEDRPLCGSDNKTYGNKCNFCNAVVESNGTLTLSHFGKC
Chain of Bovine serum albumin (P02769 25-607, one chain of several): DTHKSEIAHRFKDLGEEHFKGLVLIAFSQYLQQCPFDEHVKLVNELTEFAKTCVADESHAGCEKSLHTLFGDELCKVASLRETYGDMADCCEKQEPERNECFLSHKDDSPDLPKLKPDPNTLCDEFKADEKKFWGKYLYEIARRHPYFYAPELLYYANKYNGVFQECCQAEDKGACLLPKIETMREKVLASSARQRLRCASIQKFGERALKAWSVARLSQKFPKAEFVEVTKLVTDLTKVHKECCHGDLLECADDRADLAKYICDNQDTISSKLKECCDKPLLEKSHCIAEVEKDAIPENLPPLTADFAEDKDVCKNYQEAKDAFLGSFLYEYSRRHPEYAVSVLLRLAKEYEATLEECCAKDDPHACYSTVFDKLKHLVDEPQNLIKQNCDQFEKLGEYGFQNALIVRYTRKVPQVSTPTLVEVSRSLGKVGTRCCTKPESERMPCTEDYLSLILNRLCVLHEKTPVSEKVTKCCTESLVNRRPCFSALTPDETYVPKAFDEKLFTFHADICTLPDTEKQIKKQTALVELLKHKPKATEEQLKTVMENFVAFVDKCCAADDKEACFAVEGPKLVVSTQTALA

B1: SPN-E* (structured_DNA)
DNA 1: TGCAGCTAAGCAGGCGGCTCACAAAACCATTCGCATGCGGC
DNA 2: CTTAGCTGCA
For B1, in data set [1], the binding result is on record as “binds”.

B2: MB6 (ssDNA)
DNA: TGCAGCTAAGCAGGCGGCTCACAAAACCATTCGCATGCGGCGCTGCA
On to B2, for which, in data set [2], the binding result is listed as “binds”.

B3: MB9 (ssDNA)
DNA: TCGCACATTCCGCTTCTACCGGGGGGGTCGAGCTGAGTGGATGCGAATCTGTGGGTGGGCCGTAAGTCCGTGTGTGCGAAAATGTGCGA
With B3, the binding result in data set [3] is “no binding”.

B4: MB7 (ssDNA)
DNA: TCGCACATTCCGCTTCTACCGGGGGGGTCGAGCTGAGTGGATGCGAATCTGTGGGTGGGCCGTAAGTCCGTGTGTGCGAATGTGCGA
For B4, the binding result in data set [3] is on record as “no binding”.

B5: SPN-E (ssDNA)
DNA: TGCAGCTAAGCAGGCGGCTCACAAAACCATTCGCATGCGGCGCTGC
For the molecule B5, the binding result in data set [4] is listed as “no binding”; in data set [5] it was “binds”.

B6: MB4 (ssDNA)
DNA: TGCAGCTAAGCAGGCGGCTCACAAAACCATTCGCATGCGGCTGCA
Turning to B6, in data set [2], the binding result was “binds”.
